# Assay results reported in paper PMC9881579, “Reconfigurable asymmetric protein assemblies through implicit negative design” (Science (New York, N.Y.), 2022).
# B1: LHD202B (designed binder)
# chain: SVEFHIVNISEEQRQRIEEYVRRISKKEGTEVRFEKRDGELTIEVKNLHEKRLQEILEYIERVNK
# B2: LHD298A (designed binder)
# chain: GRQEKVLKSIEETVRKMGVTMETHRSGNTVKVVIKGLHESQQEQLHKDVEETVQKEGVFVLVSHHGDTVTIQVYE
# B3: LHD284A (designed binder)
# chain: TDELLERLRQLFEELHERGTIIIVEVHINGERQTKYLILAPKEELKKHLERIREKIEREGSSEVEVKVTSGGTTWTFNEK
# B4: LHD278A (designed binder)
# chain: GRQEKVLKSIEETVRKMGVRMLTHRGGNAVIVVIEGLHPSQIKQLMQDVIKTAKKQGVTVTITVSGDIVVIMVVVGASDEEQEEARRLVQEIARALQEAKRKGANEEQLEQLLRELLERAEREG
# B5: LHD275A (designed binder)
# chain: GRQEKVLKSIEETVRKMGVEMLTFRAGNAVIVVIRGLHPEQAKQLLRDVSQTAHKQGVTVTLTFHGDVVFILVLVGASEEEQKHMQERIQELARIIHEAKRRGVSEEQLREIAEKMAKEIQEWG
# B6: LHD289A (designed binder)
# chain: GRQEKVLKSIEETVRKMGVTMLTHRHGNVVFVVILGLHKQQALQLLRDVHRTAHKQGVTLSITFSGDIVVIAVTVGASEEEKKEVRKIVKEIAKQLRHAETEEEAKEIVQRVIEEWQEEG
# B7: LHD101A (designed binder)
# chain: GRQEKVLKSIEETVRKMGVTMETHRSGNEVKVVIKGLHIKQQRQLYRDVRETSKKQGVETEIEVEGDTVTIVVRE
# modifications: biotin on the Avi-tag where immobilised (Fig. S3D, S24B)
# B8: LHD317A (designed binder)
# chain: GRQEKVLKSIEETVRKMGVRMLTHRGGNAVIVVIEGLHPSQAEQLLRDVHRTAKKQGVTVHLVFTGDIVVIMVVVGASEEEQEEMHRLVREIAEALHEAKRKGANEEQLEQLLRELLERAEREG
# Tests used:
# Settings in all cases: both partners purified
# LHD202A [1] = biological target: T1, LHD202A; assay: BLI; biotinylated protomer on streptavidin biosensors, designed partner in solution; 25 °C; 10 mM HEPES pH 7.4, 150 mM NaCl, 3 mM EDTA, 0.05% Surfactant P20, 1 mg/ml BSA; steady-state fit, 1:1 model
# T1 construct: de novo designed protomer; BLI: one protomer of the pair was Avi-tagged, biotinylated and immobilised; also called LHD202 protomer A; source: E. coli BL21 LEMO, purified (Ni-NTA, SEC)
# T1 sequence (main, as listed by the source): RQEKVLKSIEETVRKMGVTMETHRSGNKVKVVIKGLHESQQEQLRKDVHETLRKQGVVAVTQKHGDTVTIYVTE
# LHD202A [2] = biological target: T1, LHD202A; assay: BLI; biotinylated protomer on streptavidin biosensors, designed partner in solution; 25 °C; 10 mM HEPES pH 7.4, 150 mM NaCl, 3 mM EDTA, 0.05% Surfactant P20, 1 mg/ml BSA; global kinetic fit, 1:1 model
# LHD298B [3] = biological target: T2, LHD298B; assay: BLI; biotinylated protomer on streptavidin biosensors, designed partner in solution; 25 °C; 10 mM HEPES pH 7.4, 150 mM NaCl, 3 mM EDTA, 0.05% Surfactant P20, 1 mg/ml BSA; steady-state fit, 1:1 model
# T2 construct: de novo designed protomer; BLI: one protomer of the pair was Avi-tagged, biotinylated and immobilised; also called LHD298 protomer B; source: E. coli BL21 LEMO, purified (Ni-NTA, SEC)
# LHD298B [4] = biological target: T2, LHD298B; assay: BLI; biotinylated protomer on streptavidin biosensors, designed partner in solution; 25 °C; 10 mM HEPES pH 7.4, 150 mM NaCl, 3 mM EDTA, 0.05% Surfactant P20, 1 mg/ml BSA; global kinetic fit, 1:1 model
# LHD284B [5] = biological target: T3, LHD284B; assay: BLI; biotinylated protomer on streptavidin biosensors, designed partner in solution; 25 °C; 10 mM HEPES pH 7.4, 150 mM NaCl, 3 mM EDTA, 0.05% Surfactant P20, 1 mg/ml BSA; steady-state fit, 1:1 model
# T3 construct: de novo designed protomer; BLI: one protomer of the pair was Avi-tagged, biotinylated and immobilised; also called LHD284 protomer B; source: E. coli BL21 LEMO, purified (Ni-NTA, SEC)
# LHD284B [6] = biological target: T3, LHD284B; assay: BLI; biotinylated protomer on streptavidin biosensors, designed partner in solution; 25 °C; 10 mM HEPES pH 7.4, 150 mM NaCl, 3 mM EDTA, 0.05% Surfactant P20, 1 mg/ml BSA; global kinetic fit, 1:1 model
# LHD278B [7] = biological target: T4, LHD278B; assay: BLI; biotinylated protomer on streptavidin biosensors, designed partner in solution; 25 °C; 10 mM HEPES pH 7.4, 150 mM NaCl, 3 mM EDTA, 0.05% Surfactant P20, 1 mg/ml BSA; steady-state fit, 1:1 model
# T4 construct: de novo designed protomer; BLI: one protomer of the pair was Avi-tagged, biotinylated and immobilised; source: E. coli BL21 LEMO, purified (Ni-NTA, SEC)
# LHD278B [8] = biological target: T4, LHD278B; assay: BLI; biotinylated protomer on streptavidin biosensors, designed partner in solution; 25 °C; 10 mM HEPES pH 7.4, 150 mM NaCl, 3 mM EDTA, 0.05% Surfactant P20, 1 mg/ml BSA; global kinetic fit, 1:1 model
# LHD275B [9] = biological target: T5, LHD275B; assay: BLI; biotinylated protomer on streptavidin biosensors, designed partner in solution; 25 °C; 10 mM HEPES pH 7.4, 150 mM NaCl, 3 mM EDTA, 0.05% Surfactant P20, 1 mg/ml BSA; steady-state fit, 1:1 model
# T5 construct: de novo designed protomer; BLI: one protomer of the pair was Avi-tagged, biotinylated and immobilised; source: E. coli BL21 LEMO, purified (Ni-NTA, SEC)
# LHD275B [10] = biological target: T5, LHD275B; assay: BLI; biotinylated protomer on streptavidin biosensors, designed partner in solution; 25 °C; 10 mM HEPES pH 7.4, 150 mM NaCl, 3 mM EDTA, 0.05% Surfactant P20, 1 mg/ml BSA; global kinetic fit, 1:1 model
# LHD289B [11] = biological target: T6, LHD289B; assay: BLI; biotinylated protomer on streptavidin biosensors, designed partner in solution; 25 °C; 10 mM HEPES pH 7.4, 150 mM NaCl, 3 mM EDTA, 0.05% Surfactant P20, 1 mg/ml BSA; steady-state fit, 1:1 model
# T6 construct: de novo designed protomer; BLI: one protomer of the pair was Avi-tagged, biotinylated and immobilised; source: E. coli BL21 LEMO, purified (Ni-NTA, SEC)
# LHD289B [12] = biological target: T6, LHD289B; assay: BLI; biotinylated protomer on streptavidin biosensors, designed partner in solution; 25 °C; 10 mM HEPES pH 7.4, 150 mM NaCl, 3 mM EDTA, 0.05% Surfactant P20, 1 mg/ml BSA; global kinetic fit, 1:1 model
# LHD101B [13] = biological target: T7, LHD101B (biotin on the Avi-tag where immobilised (Fig. S3D)); assay: BLI; biotinylated protomer on streptavidin biosensors, designed partner in solution; 25 °C; 10 mM HEPES pH 7.4, 150 mM NaCl, 3 mM EDTA, 0.05% Surfactant P20, 1 mg/ml BSA; steady-state fit, 1:1 model
# T7 construct: de novo designed protomer; also called LHD101 protomer B; source: E. coli BL21 LEMO, purified (Ni-NTA, SEC)
# LHD101B [14] = biological target: T7, LHD101B; assay: BLI; biotinylated protomer on streptavidin biosensors, designed partner in solution; 25 °C; 10 mM HEPES pH 7.4, 150 mM NaCl, 3 mM EDTA, 0.05% Surfactant P20, 1 mg/ml BSA; global kinetic fit, 1:1 model
# LHD317B [15] = biological target: T8, LHD317B; assay: BLI; biotinylated protomer on streptavidin biosensors, designed partner in solution; 25 °C; 10 mM HEPES pH 7.4, 150 mM NaCl, 3 mM EDTA, 0.05% Surfactant P20, 1 mg/ml BSA; steady-state fit, 1:1 model
# T8 construct: de novo designed protomer; BLI: one protomer of the pair was Avi-tagged, biotinylated and immobilised; source: E. coli BL21 LEMO, purified (Ni-NTA, SEC)
# LHD317B [16] = biological target: T8, LHD317B; assay: BLI; biotinylated protomer on streptavidin biosensors, designed partner in solution; 25 °C; 10 mM HEPES pH 7.4, 150 mM NaCl, 3 mM EDTA, 0.05% Surfactant P20, 1 mg/ml BSA; global kinetic fit, 1:1 model
binder,measurement,setting,value
B1,Kd,LHD202A [1],2400 ± 170 nM
same,Kd,LHD202A [2],4800 ± 250 nM
same,koff,LHD202A [2],0.29 ± 0.05 s⁻¹
same,kon,LHD202A [2],60000 M⁻¹ s⁻¹
B2,Kd,LHD298B [3],16 ± 3 nM
same,Kd,LHD298B [4],3.5 ± 0.01 nM
same,koff,LHD298B [4],0.00022 s⁻¹
same,kon,LHD298B [4],64000 M⁻¹ s⁻¹
B3,Kd,LHD284B [5],97 ± 13 nM
same,Kd,LHD284B [6],8.9 ± 0.13 nM
same,koff,LHD284B [6],0.0012 s⁻¹
same,kon,LHD284B [6],130000 M⁻¹ s⁻¹
B4,Kd,LHD278B [7],3.4 ± 0.69 nM
same,Kd,LHD278B [8],0.8 ± 0.003 nM
same,koff,LHD278B [8],0.00022 s⁻¹
same,kon,LHD278B [8],290000 M⁻¹ s⁻¹
B5,Kd,LHD275B [9],4.5 ± 0.22 nM
same,Kd,LHD275B [10],2.9 ± 0.01 nM
same,koff,LHD275B [10],0.00041 s⁻¹
same,kon,LHD275B [10],140000 M⁻¹ s⁻¹
B6,Kd,LHD289B [11],610 ± 120 nM
same,Kd,LHD289B [12],1080 ± 39 nM
same,koff,LHD289B [12],0.057 s⁻¹
same,kon,LHD289B [12],53000 M⁻¹ s⁻¹
B7,Kd,LHD101B [13],9.5 ± 0.76 nM
same,Kd,LHD101B [14],1.9 ± 0.04 nM
same,koff,LHD101B [14],0.0043 s⁻¹
same,kon,LHD101B [14],2.2e+06 M⁻¹ s⁻¹
B8,Kd,LHD317B [15],56 ± 2.3 nM
same,Kd,LHD317B [16],34.7 ± 0.05 nM
same,koff,LHD317B [16],0.0051 s⁻¹
same,kon,LHD317B [16],150000 M⁻¹ s⁻¹
